Data from paper PMC8387475.

Molecular target: UBR5 (UniProt O95071)
Assay: co-immunoprecipitation, immunoblot
Details: reference: wild type SIRT7; sites T255,S259

binding against the reference: stronger
Substance: SIRT7 (from UniProt Q9NRC8) SIRT7-2A (T255A/S259A)
